From patent publication US20220096653A1, “CONJUGATE COMPRISING LIGAND AND CEACAM5 ANTIBODY FAB FRAGMENT” (ASTELLAS PHARMA INC., priority 2019, published 2022)

B1: (Y-S1-X)p-Fab^2 with Y Gd/DOTA, S1 spacer (d), X -Gly-Lys*-Z2(#N)- (Fab, V domains shown)
VH: EVQLVESGGGLVQPGGSLRLSCAASGFNIRDTYMHWVRQAPGKGLEWVARIDPANGNSRYVPKFQGRFTISADTSRNTAYLQMNSLRAEDTAVYYCAPFGYYVSDYAMAYWGQGTLVTVSS
VL: DIQLTQSPSSLSASVGDRVTITCRAGESVDIFGVGFLHWYQQKPGKAPKLLIYRASNLESGIPSRFSGSGSRTDFTLTISSLQPEDFATYYCQQTNEDPYTFGQGTKVEIKR
modifications: labeling may sit on this chain; sites not stated; labeling portion (MW 954) on amino groups of the Fab, sites and chain not stated; 1-3 per Fab by MS
notes: also called Ex-No 26; conjugate 26
B2: [Gd/DOTA-NH-(CH2CH2O)3-CH2-C(═O)-NH-CH2-(1,3-Ph)-C(═O)-Met-Gly-Lys*-Z2(#N)]p-Fab^2 (Fab, V domains shown)
VH: EVQLVESGGGLVQPGGSLRLSCAASGFNIRDTYMHWVRQAPGKGLEWVARIDPANGNSRYVPKFQGRFTISADTSRNTAYLQMNSLRAEDTAVYYCAPFGYYVSDYAMAYWGQGTLVTVSS
VL: DIQLTQSPSSLSASVGDRVTITCRAGESVDIFGVGFLHWYQQKPGKAPKLLIYRASNLESGIPSRFSGSGSRTDFTLTISSLQPEDFATYYCQQTNEDPYTFGQGTKVEIKR
modifications: labeling may sit on this chain; sites not stated; labeling portion (MW 1278) on amino groups of the Fab, sites and chain not stated; 1-2 per Fab by MS
notes: also called Ex-No 29; Conjugate No. 29
B3: (Y-S1-X)p-Fab^2 with Y Gd/DOTA, S1 - (bond), X -Gly-(naph-Ala)-Lys*-Z2(#S)- (Fab, V domains shown)
VH: EVQLVESGGGLVQPGGSLRLSCAASGFNIRDTYMHWVRQAPGKGLEWVARIDPANGNSRYVPKFQGRFTISADTSRNTAYLQMNSLRAEDTAVYYCAPFGYYVSDYAMAYWGQGTLVTVSS
VL: DIQLTQSPSSLSASVGDRVTITCRAGESVDIFGVGFLHWYQQKPGKAPKLLIYRASNLESGIPSRFSGSGSRTDFTLTISSLQPEDFATYYCQQTNEDPYTFGQGTKVEIKR
modifications: labeling may sit on this chain; sites not stated; labeling portion (MW 1123) on amino groups of the Fab, sites and chain not stated; 1-2 per Fab by MS
notes: also called Ex-No 31; conjugate 31
B4: (Y-S1-X)p-Fab^2 with Y Gd/DOTA, S1 spacer (c), X -Gly-Lys*-Z2(#N)- (Fab, V domains shown)
VH: EVQLVESGGGLVQPGGSLRLSCAASGFNIRDTYMHWVRQAPGKGLEWVARIDPANGNSRYVPKFQGRFTISADTSRNTAYLQMNSLRAEDTAVYYCAPFGYYVSDYAMAYWGQGTLVTVSS
VL: DIQLTQSPSSLSASVGDRVTITCRAGESVDIFGVGFLHWYQQKPGKAPKLLIYRASNLESGIPSRFSGSGSRTDFTLTISSLQPEDFATYYCQQTNEDPYTFGQGTKVEIKR
modifications: labeling may sit on this chain; sites not stated; labeling portion (MW 908) on amino groups of the Fab, sites and chain not stated; 1-3 per Fab by MS
notes: also called Ex-No 28; conjugate 28
B5: (Y-S1-X)p-Fab^2 with Y Gd/DOTA, S1 -NH-(CH2)3-C(═O)-, X -Gly-Tyr*-CH2-C(═O)-NH-(CH2)2-Z1(#N)- (Fab, V domains shown)
VH: EVQLVESGGGLVQPGGSLRLSCAASGFNIRDTYMHWVRQAPGKGLEWVARIDPANGNSRYVPKFQGRFTISADTSRNTAYLQMNSLRAEDTAVYYCAPFGYYVSDYAMAYWGQGTLVTVSS
VL: DIQLTQSPSSLSASVGDRVTITCRAGESVDIFGVGFLHWYQQKPGKAPKLLIYRASNLESGIPSRFSGSGSRTDFTLTISSLQPEDFATYYCQQTNEDPYTFGQGTKVEIKR
modifications: labeling may sit on this chain; sites not stated; labeling portion (MW 1045) on amino groups of the Fab, sites and chain not stated; 1-3 per Fab by MS
notes: also called Ex-No 36; conjugate 36
B6: (Y-S1-X)p-Fab^2 with Y Gd/DOTA, S1 spacer (e), X -Met-Gly-Lys*-Z2(#N)- (Fab, V domains shown)
VH: EVQLVESGGGLVQPGGSLRLSCAASGFNIRDTYMHWVRQAPGKGLEWVARIDPANGNSRYVPKFQGRFTISADTSRNTAYLQMNSLRAEDTAVYYCAPFGYYVSDYAMAYWGQGTLVTVSS
VL: DIQLTQSPSSLSASVGDRVTITCRAGESVDIFGVGFLHWYQQKPGKAPKLLIYRASNLESGIPSRFSGSGSRTDFTLTISSLQPEDFATYYCQQTNEDPYTFGQGTKVEIKR
modifications: labeling may sit on this chain; sites not stated; labeling portion (MW 1095) on amino groups of the Fab, sites and chain not stated; 1-2 per Fab by MS
notes: also called Ex-No 32; conjugate 32
B7: [Gd/DOTA-NH-CH2-(1,3-Ph)-C(═O)-Met-Gly-Lys*-Z2(#S)]p-Fab^2 (Fab, V domains shown)
VH: EVQLVESGGGLVQPGGSLRLSCAASGFNIRDTYMHWVRQAPGKGLEWVARIDPANGNSRYVPKFQGRFTISADTSRNTAYLQMNSLRAEDTAVYYCAPFGYYVSDYAMAYWGQGTLVTVSS
VL: DIQLTQSPSSLSASVGDRVTITCRAGESVDIFGVGFLHWYQQKPGKAPKLLIYRASNLESGIPSRFSGSGSRTDFTLTISSLQPEDFATYYCQQTNEDPYTFGQGTKVEIKR
modifications: labeling may sit on this chain; sites not stated; labeling portion (MW 1190) bound via 2-iminothiolane-treated amino groups of the Fab, sites and chain not stated; 1-2 per Fab by MS
notes: also called Ex-No 24; Conjugate No. 24
B8: [Gd/DOTA-[2,5-(1,2,3,4-tetrahydroisoquinoline)]-C(═O)-Met-Gly-Lys*-Z2(#N)]p-Fab^2 (Fab, V domains shown)
VH: EVQLVESGGGLVQPGGSLRLSCAASGFNIRDTYMHWVRQAPGKGLEWVARIDPANGNSRYVPKFQGRFTISADTSRNTAYLQMNSLRAEDTAVYYCAPFGYYVSDYAMAYWGQGTLVTVSS
VL: DIQLTQSPSSLSASVGDRVTITCRAGESVDIFGVGFLHWYQQKPGKAPKLLIYRASNLESGIPSRFSGSGSRTDFTLTISSLQPEDFATYYCQQTNEDPYTFGQGTKVEIKR
modifications: labeling may sit on this chain; sites not stated; labeling portion (MW 1115) on amino groups of the Fab, sites and chain not stated; 1-2 per Fab by MS
notes: also called Ex-No 33; Conjugate No. 33

Molecular target: T1, CEACAM5 (R&D Systems, 4128-CM-050) (human, UniProt P06731 35-685)
T1 construct: Immobilised on the ELISA plate; also called human CEACAM5
T1 sequence (looked up): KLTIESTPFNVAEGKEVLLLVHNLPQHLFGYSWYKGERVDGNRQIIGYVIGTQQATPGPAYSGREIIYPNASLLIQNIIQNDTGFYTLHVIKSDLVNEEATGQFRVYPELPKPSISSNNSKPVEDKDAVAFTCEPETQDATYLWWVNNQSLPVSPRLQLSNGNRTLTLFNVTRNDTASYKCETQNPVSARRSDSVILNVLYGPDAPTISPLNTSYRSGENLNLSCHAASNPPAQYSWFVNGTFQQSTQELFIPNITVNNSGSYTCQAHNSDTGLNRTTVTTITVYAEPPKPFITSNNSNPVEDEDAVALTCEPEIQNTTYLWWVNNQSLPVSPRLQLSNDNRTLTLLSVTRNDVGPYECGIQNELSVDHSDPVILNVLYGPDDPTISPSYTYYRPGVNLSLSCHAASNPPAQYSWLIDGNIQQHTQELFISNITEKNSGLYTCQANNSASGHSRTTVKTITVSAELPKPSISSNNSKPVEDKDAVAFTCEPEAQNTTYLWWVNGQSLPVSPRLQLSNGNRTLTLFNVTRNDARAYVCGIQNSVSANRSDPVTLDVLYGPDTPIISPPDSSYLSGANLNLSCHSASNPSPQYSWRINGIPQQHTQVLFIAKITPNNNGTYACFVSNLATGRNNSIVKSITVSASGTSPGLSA
Assay: ELISA on immobilised CEACAM5, 4-parameter fit, duplicate
Protocol: Each anti-human CEACAM5 antibody Fab fragment conjugate prepared in Example 2 was subjected to ELISA to evaluate the binding activity thereof to CEACAM5. In the present test, a phosphate buffer (Nacalai Tesque Inc., 0.1 mol/L-Phosphate Buffer Solution (pH 7.2)) prepared to 10 mM by diluting 10-fold with distilled water was used as a solvent for an antigen immobilization liquid, and 20×PBS/Tween 20 Buffer (Thermo Fisher Scientific Inc., 28352) diluted 20-fold with distilled water was used as a wash liquid. In addition, for bovine serum albumin (BSA) used in the present test, 30% Bovine Serum Albumin solution (Sigma-Aldrich, Inc., A9576-50ML) was added in an appropriate proportion for use. CEACAM5 (R&D Systems, 4128-CM-050) was diluted with a 10 mM phosphate buffer (pH 7.2) to 0.1 μg/mL, and added to a Nunc MaxiSorp White 384 plate (Nunc, 4603272) at 30 μL per well, and the plate was incubated overnight at 4° C. for immobilization. The CEACAM5 immobilization liquid was removed by reverse centrifugation, and then blocking was carried out by adding a PBS/Tween 20 buffer containing 5.0% BSA. Thereafter, the blocking solution was removed by reverse centrifugation, a solution of each CEACAM5 antibody Fab² fragment conjugate described above or a Fab² fragment having no labeling portion (PB009-01) as a control at about 10000 ng/mL was diluted in 14 steps by 3-fold dilution using a PBS/Tween 20 buffer containing 1.0% BSA, and 30 μL was added per well and incubated at room temperature for 60 minutes. The plate was washed 3 times with a PBS/Tween 20 buffer, and Horseradish Peroxidase (HRP)-labeled goat anti-human IgG (H+L chain) antibody (MBL Life Sciences, 206) diluted 1000-fold using a PBS/Tween 20 buffer containing 5.0% BSA was added at 30 μL per well and incubated at room temperature for 30 minutes. The plate was washed 3 times with a PBS/Tween 20 buffer, and ECL Prime Western Blotting DETECTION Reagent (GE Healthcare, RPN2232) as a substrate was added at 30 μL per well. The substrate was incubated at room temperature for 15 minutes, and then a signal value thereof was measured using an Envision counter (PerkinElmer, Inc.).
The test for each antibody was carried out in duplicate, and an EC₅₀ value was calculated using a 4-parameter logistic curve model.

| Binder | EC50 [nM] |
| --- | --- |
| B1 | 0.3 |
| B2 | 0.3 |
| B3 | 0.3 |
| B4 | 0.36 |
| B5 | 0.38 |
| B6 | 0.37 |
| B7 | 0.25 |
| B8 | 0.33 |
